Blank lines part the entries; values can stand above or below the binder they belong to. Starred links: 1 amine or outer side, 2 acyl side, 3 side chain; linkers in the order of their positions; H or OH if unused. Positions of bridges follow the written chain, without caps; N, C: chain ends. Non-standard residues stand in square brackets, D forms with d. Groups on a side chain read outwards from the residue. Primed or numbered codes have the meaning given here. *: point of attachment. (2S,3S)beta‑Me‑Phe = C[C@@H](c1ccccc1)[C@H](N[*:1])C(=O)[*:2]; Ala(piperidin-4-yl) = O=C([C@H](CC1CCN([*:3])CC1)N[*:1])[*:2]; (2S,3S)βMePhe = C[C@@H](c1ccccc1)[C@H](N[*:1])C(=O)[*:2]; DOTA = O=C(O)CN1CCN(CC(=O)O)CCN(CC(=O)*)CCN(CC(=O)O)CC1; PipAla = piperidinyl-alanine residue (as named); Trp(5-F) = N[C@@H](Cc1c[nH]c2ccc(F)cc12)C(=O)O; PEG4′ = 4x 3-(2-aminoethoxy)propanoic acid; Pro(cis-4-F) = O=C(O)[C@@H]1C[C@H](F)CN1; γGlu = O=C(O)[C@H](CCC(=O)[*:2])N[*:1]; Ala(4-THP) = N[C@@H](CC1CCOCC1)C(=O)O; AEF = NCCOc1ccc(C[C@H](N)C(=O)O)cc1; Val(3-OH) = CC(C)(O)[C@H](N)C(=O)O; Hyp = O=C(O)[C@@H]1C[C@@H](O)CN1; 4Pal = N[C@@H](Cc1ccncc1)C(=O)O; aThr = C[C@H](O)[C@H](N)C(=O)O; Tle = CC(C)(C)[C@H](N)C(=O)O; hLeu = CC(C)CC[C@H](N)C(=O)O; Pip = O=C(O)[C@@H]1CCCCN1; Nle = CCCC[C@H](N)C(=O)O; Sar = CNCC(=O)O
How the values were obtained:
[1] = biological target: T1, 2Ig B7-H3 (UniProt Q5ZPR3-2 29-245, limits assumed); assay: SPR, 37C
T1 construct: also called 2lg-B7-H3; B7-H3 isoform 2Ig
T1 sequence (looked up): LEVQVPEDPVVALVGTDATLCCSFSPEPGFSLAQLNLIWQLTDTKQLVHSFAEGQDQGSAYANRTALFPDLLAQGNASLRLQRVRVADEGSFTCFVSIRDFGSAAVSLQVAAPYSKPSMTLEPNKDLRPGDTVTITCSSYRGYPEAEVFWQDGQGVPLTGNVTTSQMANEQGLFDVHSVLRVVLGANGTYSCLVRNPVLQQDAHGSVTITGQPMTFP

[2] = biological target: T2, Biotinylated human 4Ig B7-H3 (human, UniProt Q5ZPR3 29-461, limits assumed, biotinylated (site not stated)); assay: SPR 25C; B = 1.0<KD<=10 nM
T2 construct: Protein captured on the SA chip for SPR; also called 4lg-B7-H3; B7-H3 isoform 4Ig
T2 sequence: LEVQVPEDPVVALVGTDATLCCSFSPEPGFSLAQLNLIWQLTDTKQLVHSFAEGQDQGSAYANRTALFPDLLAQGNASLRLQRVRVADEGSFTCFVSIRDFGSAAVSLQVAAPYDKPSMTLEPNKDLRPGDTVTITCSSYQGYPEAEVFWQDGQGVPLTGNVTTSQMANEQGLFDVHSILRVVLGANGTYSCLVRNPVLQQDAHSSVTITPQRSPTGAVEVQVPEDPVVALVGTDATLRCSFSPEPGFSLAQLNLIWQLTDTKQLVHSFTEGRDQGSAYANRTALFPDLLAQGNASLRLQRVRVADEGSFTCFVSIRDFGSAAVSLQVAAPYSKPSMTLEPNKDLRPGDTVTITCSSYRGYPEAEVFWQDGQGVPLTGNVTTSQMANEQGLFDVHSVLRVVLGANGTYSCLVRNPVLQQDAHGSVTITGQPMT

[3] = biological target: 2Ig B7-H3 (UniProt Q5ZPR3); assay: SPR, 37C
[4] = biological target: Biotinylated human 4Ig B7-H3 (human) (UniProt Q5ZPR3); assay: SPR 37C; A = KD<=1.0 nM
[5] = biological target: B7-H3 on Calu-6 cells (human) (UniProt Q5ZPR3); assay: 177Lu-labelled peptide on Calu-6 cells, % cell associated fraction; C = >50%
[6] = biological target: T2, Biotinylated human 4Ig B7-H3; assay: SPR 37C; B = 1.0<KD<=10 nM
[7] = biological target: T2, Biotinylated human 4Ig B7-H3; assay: SPR 25C; B = 1.0<KD<=10 nM; remark: listed apart in the source
[8] = biological target: T2, Biotinylated human 4Ig B7-H3; assay: SPR 37C; C = 10<KD<=100 nM
[9] = biological target: T2, Biotinylated human 4Ig B7-H3; assay: SPR 25C; C = 10<KD<=100 nM
[10] = biological target: T2, Biotinylated human 4Ig B7-H3; assay: SPR 25C; C = 10<KD<=100 nM; remark: listed apart in the source
[11] = biological target: T1, 2Ig B7-H3; assay: SPR, 25C
[12] = biological target: T2, Biotinylated human 4Ig B7-H3; assay: SPR 37C; A = KD<=1.0 nM
[13] = biological target: T2, Biotinylated human 4Ig B7-H3; assay: SPR 25C; A = KD<=1.0 nM
[14] = biological target: Biotinylated human 4Ig B7-H3 (human) (UniProt Q5ZPR3); assay: SPR 37C; C = 10<KD<=100 nM
[15] = biological target: Biotinylated human 4Ig B7-H3 (human) (UniProt Q5ZPR3); assay: SPR 25C; A = KD<=1.0 nM
[16] = biological target: T2, Biotinylated human 4Ig B7-H3; assay: SPR 37C; D = 100<KD<=300 nM
[17] = biological target: T2, Biotinylated human 4Ig B7-H3; assay: SPR 25C; D = 100<KD<=300 nM

Kd [1]: 7000 nM
KD [2]: 1 to 10 nM
Binder: Ac-[hLeu]YCIGK(DOTA)[4Pal]DVYC[Trp(5-F)]F[Pro(cis-4-F)]-NH2 (disulfide 3-11) [Cpd 268]

Kd [3]: 370 nM
KD [4]: < 1 nM
% cell associated fraction [5]: > 50%
Binder: Ac-[hLeu]YC[Tle]G[PipAla]([PEG4′-DOTA])[Ala(4-THP)]DVYC[Trp(5-F)][(2S,3S)βMePhe][Val(3-OH)][dA]-OH (disulfide 3-11 (inferred)) [Cpd 494]

KD [6]: 1 to 10 nM
KD [7]: 1 to 10 nM
B1: Cpd 28 (peptide)
peptide: Ac-[Nle]YCVGKYDVYCWFT[dK](DOTA)-OH
modifications: disulfide 3-11
SMILES: CCCC[C@H](NC(C)=O)C(=O)N[C@@H](Cc1ccc(O)cc1)C(=O)N[C@H]1CSSC[C@@H](C(=O)N[C@@H](Cc2c[nH]c3ccccc23)C(=O)N[C@@H](Cc2ccccc2)C(=O)N[C@H](C(=O)N[C@H](CCCCNC(=O)CN2CCN(CC(=O)O)CCN(CC(=O)O)CCN(CC(=O)O)CC2)C(=O)O)[C@@H](C)O)NC(=O)[C@H](Cc2ccc(O)cc2)NC(=O)[C@H](C(C)C)NC(=O)[C@H](CC(=O)O)NC(=O)[C@H](Cc2ccc(O)cc2)NC(=O)[C@H](CCCCN)NC(=O)CNC(=O)[C@H](C(C)C)NC1=O

KD [8]: 10 to 100 nM
KD [9]: 10 to 100 nM
Binder: Ac-[Nle]YCV[Sar]KYDVYCWF-NH2 (disulfide 3-11) [Cpd 26]

KD [10]: 10 to 100 nM
Binder: Ac-[hLeu]YCIGK(DOTA)[4Pal]DVYC[Trp(5-F)]F[Pip]-NH2 (disulfide 3-11) [Cpd 269]

Kd [11]: 860 nM
B2: Cpd 301 (peptide)
peptide: Ac-[hLeu]YCVG[Ala(piperidin-4-yl)][AEF](DOTA)DVYC[Trp(5-F)]FP-NH2
modifications: disulfide 3-11
SMILES: CC(=O)N[C@@H](CCC(C)C)C(=O)N[C@@H](Cc1ccc(O)cc1)C(=O)N[C@H]1CSSC[C@@H](C(=O)N[C@@H](Cc2c[nH]c3ccc(F)cc23)C(=O)N[C@@H](Cc2ccccc2)C(=O)N2CCC[C@H]2C(N)=O)NC(=O)[C@H](Cc2ccc(O)cc2)NC(=O)[C@H](C(C)C)NC(=O)[C@H](CC(=O)O)NC(=O)[C@H](Cc2ccc(OCCNC(=O)CN3CCN(CC(=O)O)CCN(CC(=O)O)CCN(CC(=O)O)CC3)cc2)NC(=O)[C@H](CC2CCNCC2)NC(=O)CNC(=O)[C@H](C(C)C)NC1=O

KD [12]: ≤ 1 nM
KD [13]: ≤ 1 nM
B3: Cpd 295 (peptide)
peptide: Ac-[hLeu]YCVGK[AEF](DOTA)DVYC[Trp(5-F)]FT-NH2
modifications: disulfide 3-11
SMILES: CC(=O)N[C@@H](CCC(C)C)C(=O)N[C@@H](Cc1ccc(O)cc1)C(=O)N[C@H]1CSSC[C@@H](C(=O)N[C@@H](Cc2c[nH]c3ccc(F)cc23)C(=O)N[C@@H](Cc2ccccc2)C(=O)N[C@H](C(N)=O)[C@@H](C)O)NC(=O)[C@H](Cc2ccc(O)cc2)NC(=O)[C@H](C(C)C)NC(=O)[C@H](CC(=O)O)NC(=O)[C@H](Cc2ccc(OCCNC(=O)CN3CCN(CC(=O)O)CCN(CC(=O)O)CCN(CC(=O)O)CC3)cc2)NC(=O)[C@H](CCCCN)NC(=O)CNC(=O)[C@H](C(C)C)NC1=O

KD [14]: 10 to 100 nM
Binder: Ac-[hLeu]YC[Tle]GK(DOTA)[Ala(4-THP)]DVYC[Trp(5-F)]F[Val(3-OH)]-OH (disulfide 3-11 (inferred)) [Cpd 322]

Kd [3]: 520 nM
KD [4]: < 1 nM
Binder: Ac-[hLeu]YC[Tle]G[PipAla]K([PEG4′-DPTA])DVYC[Trp(5-F)][(2S,3S)beta‑Me‑Phe][Val(3-OH)][dA]-OH (disulfide 3-11 (inferred)) [Cpd 523]

KD [10]: 10 to 100 nM
Binder: Ac-[hLeu]YCIGK(DOTA)[4Pal]DVYC[Trp(5-F)]F[Hyp]-NH2 (disulfide 3-11) [Cpd 267]

KD [15]: < 1 nM
KD [4]: < 1 nM
% cell associated fraction [5]: > 50%
Binder: Ac-[hLeu]YC[Tle]GK[Ala(4-THP)]DVYC[Trp(5-F)]F[Val(3-OH)][dK](DOTA)-OH (disulfide 3-11 (inferred)) [Cpd 303]

KD [6]: 1 to 10 nM
KD [7]: 1 to 10 nM
Binder: Ac-[Nle]YCVGKYDVYCWFT[dK](DOTA)-NH2 (disulfide 3-11) [Cpd 27]

KD [16]: 100 to 300 nM
B4: Cpd 36 (peptide)
peptide: Ac-[Nle]YCVGKYDVYCWF[γGlu][γGlu]-NH2
modifications: disulfide 3-11
SMILES: CCCC[C@H](NC(C)=O)C(=O)N[C@@H](Cc1ccc(O)cc1)C(=O)N[C@H]1CSSC[C@@H](C(=O)N[C@@H](Cc2c[nH]c3ccccc23)C(=O)N[C@@H](Cc2ccccc2)C(=O)N[C@@H](CCC(=O)N[C@@H](CCC(N)=O)C(=O)O)C(=O)O)NC(=O)[C@H](Cc2ccc(O)cc2)NC(=O)[C@H](C(C)C)NC(=O)[C@H](CC(=O)O)NC(=O)[C@H](Cc2ccc(O)cc2)NC(=O)[C@H](CCCCN)NC(=O)CNC(=O)[C@H](C(C)C)NC1=O

KD [17]: 100 to 300 nM
KD [16]: 100 to 300 nM
B5: Cpd 1 (peptide)
peptide: Ac-MYCVGKYDVYCWF-NH2
modifications: disulfide 3-11
SMILES: CSCC[C@H](NC(C)=O)C(=O)N[C@@H](Cc1ccc(O)cc1)C(=O)N[C@H]1CSSC[C@@H](C(=O)N[C@@H](Cc2c[nH]c3ccccc23)C(=O)N[C@@H](Cc2ccccc2)C(N)=O)NC(=O)[C@H](Cc2ccc(O)cc2)NC(=O)[C@H](C(C)C)NC(=O)[C@H](CC(=O)O)NC(=O)[C@H](Cc2ccc(O)cc2)NC(=O)[C@H](CCCCN)NC(=O)CNC(=O)[C@H](C(C)C)NC1=O

KD [9]: 10 to 100 nM
Binder: Ac-[Nle]YCVGKYDVYCWF[aThr][dK](DOTA)-NH2 (disulfide 3-11) [Cpd 93]

KD [15]: < 1 nM
KD [4]: < 1 nM
% cell associated fraction [5]: > 50%
Binder: Ac-[hLeu]YC[Tle]GK[Ala(4-THP)]DVYC[Trp(5-F)]F[Val(3-OH)][dK]([PEG4′-DOTA])-OH (disulfide 3-11 (inferred)) [Cpd 310]
